Drawing on publication PMC9524020, this text covers Kd for 14 substances.

One may read the Kd as a measure of binding affinity in units of concentration.

What all share (experiment): SPR
For orientation: In SPR one partner is held on a chip, and binding of the other changes the refractive index at the surface.

Assay [1] addresses FcγRIIIa-158F-Afucosylated (human) (UniProt P08637).
Assay [2] addresses FcγRIIIa-158F-CHO^WT (soluble FcγRIIIa, allotype 158F, from wild-type CHO) (human) (UniProt P08637).
In assay [3] the target is FcγRIIIa-158F-G2FS(2-3) (human) (UniProt P08637).
Assay [4] concerns the target FcγRIIIa-158F-HEK^WT (human) (UniProt P08637).
Assay [5] deals with FcγRIIIa-158F-Hybrid (human) (UniProt P08637).
Assay [6] addresses FcγRIIIa-158F-Monoantennae (human) (UniProt P08637).
For assay [7], the target named is FcγRIIIa-158V-Afucosylated (human).
In assay [8] the target is FcγRIIIa-158V-G2FS(2-3) (human).
Assay [9] has as its target FcγRIIIa-158V-G2FS(2-6) (human).
Assay [10] deals with FcγRIIIa-158V-HEK^WT (human).
Assay [11] concerns the target FcγRIIIa-158V-Hybrid (human).
The target of assay [12] is FcγRIIIa-158V-Monoantennae (human).
For assay [13], the target named is FcγRIIIa-158V-Oligomannose (human).
Assay [14] concerns the target biotinylated, recombinant, human FcγRIIIa-158V from SinoBiological (human).
Assay [15] addresses FcγRIIIa-158V, FcγRIIIa-Afucosylated (human).
For assay [16], the target named is FcγRIIIa-158V, FcγRIIIa-G2FS(2-3) (human).
Assay [17] deals with FcγRIIIa-158V, FcγRIIIa-G2FS(2-6) (human).
The target of assay [18] is FcγRIIIa-158V, FcγRIIIa-HEK^WT (human).
Assay [19] deals with FcγRIIIa-158V, FcγRIIIa-Hybrid (human).
The target of assay [20] is FcγRIIIa-158V, FcγRIIIa-Monoantennae (human).
Assay [21] addresses FcγRIIIa-158V, FcγRIIIa-Oligomannose (human).
Assay [22] addresses FcγRIIIa-158F-G2FS(2-6) (human) (UniProt P08637).
Assay [23] has as its target FcγRIIIa-158V-CHO^WT (soluble FcγRIIIa, allotype 158V, from wild-type CHO) (human).
Assay [24] concerns the target biotinylated, recombinant, human FcγRIIIa-158F from SinoBiological (human) (UniProt P08637).
The target of assay [25] is FcγRIIIa-158V, FcγRIIIa-CHO^WT (human).
Chain of FcγRIIIa-158V, FcγRIIIa-CHO^WT (human) (P08637 17-208 F176V): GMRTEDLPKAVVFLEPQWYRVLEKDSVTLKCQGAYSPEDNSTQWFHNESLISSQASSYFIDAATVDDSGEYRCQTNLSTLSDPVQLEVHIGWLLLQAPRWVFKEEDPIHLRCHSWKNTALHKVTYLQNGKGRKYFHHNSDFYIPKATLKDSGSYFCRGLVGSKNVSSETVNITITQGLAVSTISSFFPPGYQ

Chain of biotinylated, recombinant, human FcγRIIIa-158F from SinoBiological (human) (P08637 17-208): as the sequence (P08637 17-208 F176V) above, with V160F counted along it
Chain of FcγRIIIa-158F-Hybrid (human) (P08637 17-208): as the sequence (P08637 17-208 F176V) above, with V160F counted along it
Chain of FcγRIIIa-158F-CHO^WT (soluble FcγRIIIa, allotype 158F, from wild-type CHO) (human) (P08637 17-208): as the sequence (P08637 17-208 F176V) above, with V160F counted along it
Chain of FcγRIIIa-158F-HEK^WT (human) (P08637 17-208): as the sequence (P08637 17-208 F176V) above, with V160F counted along it
Chain of FcγRIIIa-158F-Monoantennae (human) (P08637 17-208): as the sequence (P08637 17-208 F176V) above, with V160F counted along it
Chain of FcγRIIIa-158F-G2FS(2-3) (human) (P08637 17-208): as the sequence (P08637 17-208 F176V) above, with V160F counted along it
Chain of FcγRIIIa-158F-Afucosylated (human) (P08637 17-208): as the sequence (P08637 17-208 F176V) above, with V160F counted along it
Chain of FcγRIIIa-158V, FcγRIIIa-G2FS(2-6) (human) (P08637 17-208 F176V): as the sequence (P08637 17-208 F176V) above
Chain of FcγRIIIa-158V, FcγRIIIa-Monoantennae (human) (P08637 17-208 F176V): as above
Chain of FcγRIIIa-158V, FcγRIIIa-G2FS(2-3) (human) (P08637 17-208 F176V): as above
Chain of FcγRIIIa-158V, FcγRIIIa-Oligomannose (human) (P08637 17-208 F176V): as above
Chain of FcγRIIIa-158V, FcγRIIIa-Afucosylated (human) (P08637 17-208 F176V): as above
Chain of FcγRIIIa-158V, FcγRIIIa-Hybrid (human) (P08637 17-208 F176V): as above
Chain of FcγRIIIa-158V, FcγRIIIa-HEK^WT (human) (P08637 17-208 F176V): as above
Chain of FcγRIIIa-158F-G2FS(2-6) (human) (P08637 17-208): as the sequence (P08637 17-208 F176V) above, with V160F counted along it

As to IgG1-Oligomannose (mAb SO57) (antibody), the Kd in assay [1] amounted to 0.406 µM; in assay [2] it was 0.582 µM; in assay [3], 0.48 µM; in assay [4], 0.383 µM; in [5] it was 0.405 µM; in [6], 0.428 µM. Further, the Kd was 0.0883 µM in [7]; 0.123 µM in [8]; 0.0796 µM in [9]; 0.0872 µM in assay [10]; 0.104 µM in assay [11]; 0.109 µM in assay [12]. In addition, the Kd in assay [13] came out at 0.0376 µM; in [14], 0.0932 µM.
As for IgG1-G2F (mAb SO57, galactosylated), the Kd is 0.27 µM in [15]; 0.38 µM in [16]; 0.26 µM in assay [17]; 0.26 µM in [18]; 0.3 µM in assay [19]; 0.3 µM in assay [20].
Turning to IgG1-Oligomannose (mAb SO57, Man5), the Kd in assay [15] amounted to 0.088 µM; in assay [17], 0.08 µM; in assay [18], 0.087 µM; in assay [21], 0.038 µM.
Regarding “IgG1-G2FS(2-6) (mAb SO57, α2-6 linked Sia)”, the Kd in assay [15] came to 0.26 µM; in [16], 0.4 µM; in [18] it was 0.26 µM; in assay [20], 0.29 µM.
As to “IgG1-CHO^WT (anti-rabies human IgG1 mAb SO57 from wild-type CHO) (antibody)”, the Kd in [1] worked out at 2.33 µM; in assay [2], 3.49 µM; in [3], 2.54 µM; in [22], 1.68 µM; in assay [4], 2.16 µM; in [5], 2.22 µM. The Kd came out at 2.35 µM in assay [6]; 0.464 µM in assay [7]; 0.489 µM in assay [23]; 0.624 µM in assay [8]; 0.443 µM in [9]; 0.44 µM in [10]. Further, the Kd in assay [11] came to 0.456 µM; in assay [12], 0.489 µM; in assay [13] it was 0.242 µM; in [24], 1.78 µM; in assay [14] it was 0.44 µM.
For IgG1-Monoantennae (mAb SO57) (antibody), the Kd in assay [7] is 0.698 µM; in assay [23], 0.635 µM; in [8], 0.935 µM; in [9] it was 0.755 µM; in assay [10] it was 0.643 µM; in assay [11], 0.742 µM. Besides, the Kd in assay [12] came out at 0.731 µM; in assay [13] it was 0.375 µM; in assay [24], 3.26 µM; in [14] it was 0.761 µM.
Take IgG1-G0 (mAb SO57) (antibody): the Kd in assay [1] turned out to be 0.164 µM; in [2] it was 0.213 µM; in assay [3] it was 0.184 µM; in [6], 0.17 µM; in assay [7] it was 0.0296 µM; in assay [23] it was 0.0369 µM. In addition, the dissociation constant Kd in [9] was determined as 0.0297 µM; in [11], 0.033 µM; in [12] it was 0.0376 µM; in assay [13] it was 0.0142 µM; in assay [14], 0.0329 µM.
Regarding “IgG1-Monoantennae (mAb SO57, monoantennary N-glycan)”, the Kd worked out at 0.7 µM in assay [15]; 0.64 µM in [25]; 0.93 µM in assay [16]; 0.75 µM in [17]; 0.64 µM in assay [18]; 0.74 µM in [19]. Also, the Kd in assay [20] worked out at 0.73 µM; in [21] it was 0.38 µM.
As for IgG1-Hybrid (mAb SO57) (antibody), the Kd in assay [1] was 2.21 µM; in [2], 4.61 µM; in assay [4], 2.51 µM; in [5], 2.66 µM; in assay [6], 2.2 µM; in [7], 0.808 µM. For the same substance, the Kd in assay [23] was 0.869 µM; in assay [8], 1.07 µM; in [9], 0.573 µM; in [10], 0.693 µM; in assay [11], 0.471 µM; in assay [12], 0.426 µM. Also, the dissociation constant (Kd) in assay [13] worked out at 0.399 µM; in assay [24] it was 2.23 µM; in assay [14], 0.598 µM.
Consider IgG1-Hybrid (mAb SO57, hybrid N-glycan), for which the Kd is 0.81 µM in assay [15]; 0.87 µM in [25]; 1.1 µM in [16]; 0.69 µM in assay [18]; 0.47 µM in assay [19]; 0.4 µM in [21].
For the substance IgG1-G2F (mAb SO57) (antibody), the Kd in assay [1] stood at 1.21 µM; in [2], 1.86 µM; in [3], 1.37 µM; in assay [22], 0.851 µM; in assay [4], 1.15 µM; in [5] it was 1.21 µM. Also, the Kd in assay [6] came out at 1.27 µM; in assay [7], 0.27 µM; in assay [23], 0.278 µM; in [8], 0.377 µM; in [9], 0.262 µM; in [10], 0.263 µM. For the same substance, the Kd in assay [11] came to 0.297 µM; in assay [12] it was 0.305 µM; in assay [24], 0.965 µM.
Take “IgG1-G2FS(2-3) (mAb SO57, α2-3 linked Sia)”: the Kd came out at 0.29 µM in assay [25]; 0.26 µM in assay [17]; 0.26 µM in assay [18]; 0.3 µM in assay [19]; 0.31 µM in assay [20].
“IgG1-G0 (mAb SO57, afucosylated, agalactosylated)”: the Kd in [25] worked out at 0.037 µM; in assay [16], 0.038 µM; in assay [19], 0.033 µM; in assay [20], 0.038 µM; in assay [21] it was 0.014 µM.
As to IgG1-G2FS(2-6) (mAb SO57) (antibody), the Kd in [1] amounted to 0.964 µM; in [2], 1.86 µM; in assay [3], 1.24 µM; in [4], 1.05 µM; in assay [5] it was 1.11 µM; in assay [6], 1.11 µM. Besides, the Kd in [7] was found to be 0.26 µM; in assay [8], 0.398 µM; in assay [10], 0.261 µM; in assay [11] it was 0.281 µM; in [12], 0.289 µM; in assay [13], 0.145 µM. Besides, the Kd in [14] is 0.275 µM.
